Test results as given in PMC6196983, “The Native Monomer of Bacillus Pumilus Ribonuclease Does Not Exist Extracellularly” (BioMed Research International, 2018).

Target: the molecule itself
Experiment: NMR self-diffusion (hydrodynamic radius); 1.5 mg/ml binase in D2O at pH 3.0 and pH 6.4; BPP-LED stimulated echo, 600.13 MHz; radius from the Stokes-Einstein equation compared with the theoretical monomer size of 1.6 nm

B1: binase, secreted guanyl-preferring ribonuclease of Bacillus pumilus (enzyme, UniProt P00649 54-162, looked up)
chain: AVINTFDGVADYLIRYKRLPDNYITKSQASALGWVASKGNLAEVAPGKSIGGDVFSNREGRLPSASGRTWREADINYVSGFRNADRLVYSSDWLIYKTTDHYATFTRIR
notes: binase, secreted ribonuclease of Bacillus pumilus (formerly Bacillus intermedius); also called B. pumilus secreted RNase; Bacillus intermedius RNase; source: isolated from B. pumilus culture fluid, purified
stoichiometry N: 2
